*1 amine or outer side, *2 acyl side, *3 side chain or, on linkers, in order; H or OH if unused. Where no end group is shown, it is not given here. Side-chain parts run from the residue outwards. The star is where a group is joined. C18 diacid = O=C(O)CCCCCCCCCCCCCCCCC(=O)*; C16 diacid = O=C(O)CCCCCCCCCCCCCCC(=O)*; γGlu = O=C(O)[C@H](CCC(=O)[*:2])N[*:1]; Stearoyl = CCCCCCCCCCCCCCCCCC(=O)*; AEEA = NCCOCCOCC(=O)O

Consider 7 molecules from patent US20220298218A1 (ANTAG THERAPEUTICS, published 2022).

T1: human GIP receptor (human, UniProt P48546 22-466)
T1 sequence (looked up): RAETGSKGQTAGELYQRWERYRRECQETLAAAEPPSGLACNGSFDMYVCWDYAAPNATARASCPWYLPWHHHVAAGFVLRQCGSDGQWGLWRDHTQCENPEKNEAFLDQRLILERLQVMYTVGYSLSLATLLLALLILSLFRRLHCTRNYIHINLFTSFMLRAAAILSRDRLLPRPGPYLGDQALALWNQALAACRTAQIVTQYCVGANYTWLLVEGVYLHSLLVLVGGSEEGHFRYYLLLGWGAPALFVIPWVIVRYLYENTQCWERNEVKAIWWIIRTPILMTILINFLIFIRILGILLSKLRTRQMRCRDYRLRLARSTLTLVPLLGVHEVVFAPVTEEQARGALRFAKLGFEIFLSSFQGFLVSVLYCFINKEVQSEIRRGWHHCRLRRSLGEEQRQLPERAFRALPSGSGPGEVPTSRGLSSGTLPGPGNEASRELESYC

B1: AT545 (peptide)
peptide: EGTFISDYSIAMDKIK([AEEA-AEEA-γGlu-C18 diacid])QQDFVNWLLAQKGKKNDW-NH2
modifications: N-terminus assumed
SMILES: CC[C@H](C)[C@H](NC(=O)[C@H](CO)NC(=O)[C@H](Cc1ccc(O)cc1)NC(=O)[C@H](CC(=O)O)NC(=O)[C@H](CO)NC(=O)[C@@H](NC(=O)[C@H](Cc1ccccc1)NC(=O)[C@@H](NC(=O)CNC(=O)[C@@H](N)CCC(=O)O)[C@@H](C)O)[C@@H](C)CC)C(=O)N[C@@H](C)C(=O)N[C@@H](CCSC)C(=O)N[C@@H](CC(=O)O)C(=O)N[C@@H](CCCCN)C(=O)N[C@H](C(=O)N[C@@H](CCCCNC(=O)COCCOCCNC(=O)COCCOCCNC(=O)CC[C@H](NC(=O)CCCCCCCCCCCCCCCCC(=O)O)C(=O)O)C(=O)N[C@@H](CCC(N)=O)C(=O)N[C@@H](CCC(N)=O)C(=O)N[C@@H](CC(=O)O)C(=O)N[C@@H](Cc1ccccc1)C(=O)N[C@H](C(=O)N[C@@H](CC(N)=O)C(=O)N[C@@H](Cc1c[nH]c2ccccc12)C(=O)N[C@@H](CC(C)C)C(=O)N[C@@H](CC(C)C)C(=O)N[C@@H](C)C(=O)N[C@@H](CCC(N)=O)C(=O)N[C@@H](CCCCN)C(=O)NCC(=O)N[C@@H](CCCCN)C(=O)N[C@@H](CCCCN)C(=O)N[C@@H](CC(N)=O)C(=O)N[C@@H](CC(=O)O)C(=O)N[C@@H](Cc1c[nH]c2ccccc12)C(N)=O)C(C)C)[C@@H](C)CC
B2: AT547 (peptide)
peptide: EGTFISDYSIAMDKIKQQDFVNWLLAQKGKKNDW
HELM: PEPTIDE1{E.G.T.F.I.S.D.Y.S.I.A.M.D.K.I.K.Q.Q.D.F.V.N.W.L.L.A.Q.K.G.K.K.N.D.W}|PEPTIDE2{[CCCCCCCCCCCCCCCCCC(=O)[*:2]].[gGlu].[gGlu]}$PEPTIDE1,PEPTIDE2,16:R3-3:R2$$$V2.0; N-terminus assumed
SMILES: CCCCCCCCCCCCCCCCCC(=O)N[C@@H](CCC(=O)N[C@@H](CCC(=O)NCCCC[C@H](NC(=O)[C@@H](NC(=O)[C@H](CCCCN)NC(=O)[C@H](CC(=O)O)NC(=O)[C@H](CCSC)NC(=O)[C@H](C)NC(=O)[C@@H](NC(=O)[C@H](CO)NC(=O)[C@H](Cc1ccc(O)cc1)NC(=O)[C@H](CC(=O)O)NC(=O)[C@H](CO)NC(=O)[C@@H](NC(=O)[C@H](Cc1ccccc1)NC(=O)[C@@H](NC(=O)CNC(=O)[C@@H](N)CCC(=O)O)[C@@H](C)O)[C@@H](C)CC)[C@@H](C)CC)[C@@H](C)CC)C(=O)N[C@@H](CCC(N)=O)C(=O)N[C@@H](CCC(N)=O)C(=O)N[C@@H](CC(=O)O)C(=O)N[C@@H](Cc1ccccc1)C(=O)N[C@H](C(=O)N[C@@H](CC(N)=O)C(=O)N[C@@H](Cc1c[nH]c2ccccc12)C(=O)N[C@@H](CC(C)C)C(=O)N[C@@H](CC(C)C)C(=O)N[C@@H](C)C(=O)N[C@@H](CCC(N)=O)C(=O)N[C@@H](CCCCN)C(=O)NCC(=O)N[C@@H](CCCCN)C(=O)N[C@@H](CCCCN)C(=O)N[C@@H](CC(N)=O)C(=O)N[C@@H](CC(=O)O)C(=O)N[C@@H](Cc1c[nH]c2ccccc12)C(=O)O)C(C)C)C(=O)O)C(=O)O
B3: AT549 (peptide)
peptide: EGTFISDYSIAMDKIHQK([AEEA-AEEA-γGlu-C18 diacid])DFVNWLLAQKGKKNDW-NH2
modifications: N-terminus assumed
SMILES: CC[C@H](C)[C@H](NC(=O)[C@H](CO)NC(=O)[C@H](Cc1ccc(O)cc1)NC(=O)[C@H](CC(=O)O)NC(=O)[C@H](CO)NC(=O)[C@@H](NC(=O)[C@H](Cc1ccccc1)NC(=O)[C@@H](NC(=O)CNC(=O)[C@@H](N)CCC(=O)O)[C@@H](C)O)[C@@H](C)CC)C(=O)N[C@@H](C)C(=O)N[C@@H](CCSC)C(=O)N[C@@H](CC(=O)O)C(=O)N[C@@H](CCCCN)C(=O)N[C@H](C(=O)N[C@@H](Cc1c[nH]cn1)C(=O)N[C@@H](CCC(N)=O)C(=O)N[C@@H](CCCCNC(=O)COCCOCCNC(=O)COCCOCCNC(=O)CC[C@H](NC(=O)CCCCCCCCCCCCCCCCC(=O)O)C(=O)O)C(=O)N[C@@H](CC(=O)O)C(=O)N[C@@H](Cc1ccccc1)C(=O)N[C@H](C(=O)N[C@@H](CC(N)=O)C(=O)N[C@@H](Cc1c[nH]c2ccccc12)C(=O)N[C@@H](CC(C)C)C(=O)N[C@@H](CC(C)C)C(=O)N[C@@H](C)C(=O)N[C@@H](CCC(N)=O)C(=O)N[C@@H](CCCCN)C(=O)NCC(=O)N[C@@H](CCCCN)C(=O)N[C@@H](CCCCN)C(=O)N[C@@H](CC(N)=O)C(=O)N[C@@H](CC(=O)O)C(=O)N[C@@H](Cc1c[nH]c2ccccc12)C(N)=O)C(C)C)[C@@H](C)CC
B4: AT546 (peptide)
peptide: EGTFISDYSIAMDKIK([AEEA-AEEA-γGlu-Stearoyl])QQDFVNWLLAQKGKKNDW-OH
modifications: N-terminus assumed
SMILES: CCCCCCCCCCCCCCCCCC(=O)N[C@@H](CCC(=O)NCCOCCOCC(=O)NCCOCCOCC(=O)NCCCC[C@H](NC(=O)[C@@H](NC(=O)[C@H](CCCCN)NC(=O)[C@H](CC(=O)O)NC(=O)[C@H](CCSC)NC(=O)[C@H](C)NC(=O)[C@@H](NC(=O)[C@H](CO)NC(=O)[C@H](Cc1ccc(O)cc1)NC(=O)[C@H](CC(=O)O)NC(=O)[C@H](CO)NC(=O)[C@@H](NC(=O)[C@H](Cc1ccccc1)NC(=O)[C@@H](NC(=O)CNC(=O)[C@@H](N)CCC(=O)O)[C@@H](C)O)[C@@H](C)CC)[C@@H](C)CC)[C@@H](C)CC)C(=O)N[C@@H](CCC(N)=O)C(=O)N[C@@H](CCC(N)=O)C(=O)N[C@@H](CC(=O)O)C(=O)N[C@@H](Cc1ccccc1)C(=O)N[C@H](C(=O)N[C@@H](CC(N)=O)C(=O)N[C@@H](Cc1c[nH]c2ccccc12)C(=O)N[C@@H](CC(C)C)C(=O)N[C@@H](CC(C)C)C(=O)N[C@@H](C)C(=O)N[C@@H](CCC(N)=O)C(=O)N[C@@H](CCCCN)C(=O)NCC(=O)N[C@@H](CCCCN)C(=O)N[C@@H](CCCCN)C(=O)N[C@@H](CC(N)=O)C(=O)N[C@@H](CC(=O)O)C(=O)N[C@@H](Cc1c[nH]c2ccccc12)C(=O)O)C(C)C)C(=O)O
B5: AT548 (peptide)
peptide: EGTFISDYSIAMDKIHQK([AEEA-AEEA-γGlu-C18 diacid])DFVNWLLAQKGKKNDW-OH
modifications: N-terminus assumed
SMILES: CC[C@H](C)[C@H](NC(=O)[C@H](CO)NC(=O)[C@H](Cc1ccc(O)cc1)NC(=O)[C@H](CC(=O)O)NC(=O)[C@H](CO)NC(=O)[C@@H](NC(=O)[C@H](Cc1ccccc1)NC(=O)[C@@H](NC(=O)CNC(=O)[C@@H](N)CCC(=O)O)[C@@H](C)O)[C@@H](C)CC)C(=O)N[C@@H](C)C(=O)N[C@@H](CCSC)C(=O)N[C@@H](CC(=O)O)C(=O)N[C@@H](CCCCN)C(=O)N[C@H](C(=O)N[C@@H](Cc1c[nH]cn1)C(=O)N[C@@H](CCC(N)=O)C(=O)N[C@@H](CCCCNC(=O)COCCOCCNC(=O)COCCOCCNC(=O)CC[C@H](NC(=O)CCCCCCCCCCCCCCCCC(=O)O)C(=O)O)C(=O)N[C@@H](CC(=O)O)C(=O)N[C@@H](Cc1ccccc1)C(=O)N[C@H](C(=O)N[C@@H](CC(N)=O)C(=O)N[C@@H](Cc1c[nH]c2ccccc12)C(=O)N[C@@H](CC(C)C)C(=O)N[C@@H](CC(C)C)C(=O)N[C@@H](C)C(=O)N[C@@H](CCC(N)=O)C(=O)N[C@@H](CCCCN)C(=O)NCC(=O)N[C@@H](CCCCN)C(=O)N[C@@H](CCCCN)C(=O)N[C@@H](CC(N)=O)C(=O)N[C@@H](CC(=O)O)C(=O)N[C@@H](Cc1c[nH]c2ccccc12)C(=O)O)C(C)C)[C@@H](C)CC
B6: AT631 (peptide)
peptide: EGTFISDYSIAMDKIK(C16 diacid)QQDFVNWLLAQKPSSGAPPPS-OH
modifications: N-terminus assumed
SMILES: CC[C@H](C)[C@H](NC(=O)[C@H](CO)NC(=O)[C@H](Cc1ccc(O)cc1)NC(=O)[C@H](CC(=O)O)NC(=O)[C@H](CO)NC(=O)[C@@H](NC(=O)[C@H](Cc1ccccc1)NC(=O)[C@@H](NC(=O)CNC(=O)[C@@H](N)CCC(=O)O)[C@@H](C)O)[C@@H](C)CC)C(=O)N[C@@H](C)C(=O)N[C@@H](CCSC)C(=O)N[C@@H](CC(=O)O)C(=O)N[C@@H](CCCCN)C(=O)N[C@H](C(=O)N[C@@H](CCCCNC(=O)CCCCCCCCCCCCCCC(=O)O)C(=O)N[C@@H](CCC(N)=O)C(=O)N[C@@H](CCC(N)=O)C(=O)N[C@@H](CC(=O)O)C(=O)N[C@@H](Cc1ccccc1)C(=O)N[C@H](C(=O)N[C@@H](CC(N)=O)C(=O)N[C@@H](Cc1c[nH]c2ccccc12)C(=O)N[C@@H](CC(C)C)C(=O)N[C@@H](CC(C)C)C(=O)N[C@@H](C)C(=O)N[C@@H](CCC(N)=O)C(=O)N[C@@H](CCCCN)C(=O)N1CCC[C@H]1C(=O)N[C@@H](CO)C(=O)N[C@@H](CO)C(=O)NCC(=O)N[C@@H](C)C(=O)N1CCC[C@H]1C(=O)N1CCC[C@H]1C(=O)N1CCC[C@H]1C(=O)N[C@@H](CO)C(=O)O)C(C)C)[C@@H](C)CC

This assay addresses T1, human GIP receptor. Nature of the assay: cell-based or functional assay.
B1: the “cAMP agonism % Emax” value was 0%, the “cAMP antagonism” value was found to be 17.8 nM, the “cAMP antagonism % inhib” value was 77% and the “cAMP antagonism pIC50” value came to 7.8.

As for B2, the “cAMP agonism % Emax” value amounted to 0%, the “cAMP antagonism” value worked out at 7.94 nM, the “cAMP antagonism % inhib” value came out at 100% and the “cAMP antagonism pIC50” value amounted to 8.1.

Consider B3, for which the “cAMP agonism % Emax” value was 0%, the “cAMP antagonism” value turned out to be 200 nM, the “cAMP antagonism % inhib” value came out at 80% and the “cAMP antagonism pIC50” value is 6.7.

Turning to B4, the “cAMP agonism % Emax” value stood at 0%, the “cAMP antagonism” value came out at 12.6 nM, the “cAMP antagonism % inhib” value was determined as 95% and the “cAMP antagonism pIC50” value was 7.9.

Turning to B5, the “cAMP agonism % Emax” value worked out at 0%, the “cAMP antagonism” value came to 126 nM, the “cAMP antagonism % inhib” value turned out to be 86% and the “cAMP antagonism pIC50” value stood at 6.9.

As for TFISDYK([AEEA-AEEA-γGlu-C18])IAMDKIHQQDFVNWLLAQKGKKNDW-OH [AT560], the “cAMP antagonism” value was determined as 23.3 nM, the “cAMP antagonism % inhib” value amounted to 100% and the “cAMP antagonism pIC50” value came to 7.6.

For B6, the “cAMP agonism % Emax” value was found to be 0%.
